Measurements from PMC9407465.

Columns and labels:
[1] = luciferase reporters; settings: glycan lost
[2] = IP and acetylation immunoblot; settings: glycan lost; control: wild type Gli2

Protein | other: transcriptional activity ([1]; control: wild type Gli2) | other: Gli2 acetylation [2] | other: transcriptional activity ([1]; control: wild type GLI2)
Gli2 (GLI family zinc finger 2): S355A (protein) parent chain: METSAPAPALEKKEAKSGLLEDSSFPDPGKKACPLAVAAAVAAHGVPQQLLPAFHAPLPIDMRHQEGRYHYDPHSVHSVHGPPTLSGSPVISDISLIRLSPHPAGPGESPFSAHHPYVNPHMEHYLRSVHSSPTLSMISAARGLSPADVAHEHLKERGLFSLAAPGTNPSDYYHQMTLMASHPTPYGDLLMQSGGAASAPHLHDYLNPVDASRFSSPRVTPRLSRKRALSISPLSDASLDLQRMIRTSPNSLVAYINNSRSSSAASGSYGHLSAGALSPAFTFPHPINPVAYQQILSQQRGLGSAFGHTPPLIQPSPTFLAQQPMTLTSISTMPTQLSSSSSNCLNDANQNKQNSESAVSSTVNPITIHKRSKVKTEAEGLRPASPLGLTQEQLADLKEDLDRDDCKQEAEVVIYETNCHWADCTKEYDTQEQLVHHINNEHIHGEKKEFVCRWQACTREQKPFKAQYMLVVHMRRHTGEKPHKCTFEGCSKAYSRLENLKTHLRSHTGEKPYVCEHEGCNKAFSNASDRAKHQNRTHSNEKPYICKIPGCTKRYTDPSSLRKHVKTVHGPDAHVTKKQRNDVHVRAPLLKENGDNEASAEPGGRGPEESVEASSTSHTVEDCLHIKAIKTESSGLCQSSPGAQSSCSSEPSPLGSAPNNDSGMEMPGTGPGSLGDLTALADTCPGADTSALAAPSTGGLQLRKHMSTVHRFEQLKREKLKSLKDSCSWAGPAPHTRNTKLPPLPVNGSVLENFNNTGGGGPAGLLPSQRLPELTEVTMLSQLQERRDSSTSTMSSAYTVSRRSSGISPYFSSRRSSEASPLGGLRPHNASSADSYDPISTDASRRSSEASQCSGGGPGLLNLTPAQQYNLRAKYAAATGGPPPTPLPGLDRVSLRTRLALLDAPERALPGACPHPLGPRRGSDGPTYSHGHGHGYAGAAPAFPHEGPNSSTRRASDPVRRPDPLILPRVQRFHSTHNMNPGSLPPCADRRGLHVQSHPSVDSNLTRNAYSPRPPSINENVVMEAVAAGVDGPGLECDLGLVEDELVLPDDVVQYIKAHTGGTLDDGIRQGYPTEGTGFPENSKLPSPGLQGHRRLAAADSNMGPSAPGLGGCQLSYSPSSNLNKSNMPVQWNEVSSGTVDALPTQVKPPPFPHSNLAVVQQKPAFGQYPGYNPQSVQSSSGGLDSTQPHLQLRGAPSASRGSYTQQPRQPAAGSQCLGMSAAMSPQASYSQAHPQLSPNIVSGSLNQFSPSCSNMAAKPSHLGLPQQMEVVPNATIMNGHQREHGVPNSSLAAVSQPHPVLSYPQQDSYQQGSNLLSSHQPGFMESQQNAGFGLMQPRPPLEPNTASRHRGVRSGQQQLYARTTGQAMVTSANQETAEAMPKGPAGTMVSLAPQPSQDTGRAQDQNTLYYYGQIHMYEQNGGCPAVQPQPPQPQACSDSIQPEPLPSPGVNQVSSTVDSQLLEPPQIDFDAIMDDGDHSSLFSGALSPTLLHNLSQNSSRLTTPRNSLTLPSIPAGISNMAVGDMSSMLTSLAEESKFLNMMT | decreases | increases | 
Gli2 (GLI family zinc finger 2): S355D (protein) parent chain: METSAPAPALEKKEAKSGLLEDSSFPDPGKKACPLAVAAAVAAHGVPQQLLPAFHAPLPIDMRHQEGRYHYDPHSVHSVHGPPTLSGSPVISDISLIRLSPHPAGPGESPFSAHHPYVNPHMEHYLRSVHSSPTLSMISAARGLSPADVAHEHLKERGLFSLAAPGTNPSDYYHQMTLMASHPTPYGDLLMQSGGAASAPHLHDYLNPVDASRFSSPRVTPRLSRKRALSISPLSDASLDLQRMIRTSPNSLVAYINNSRSSSAASGSYGHLSAGALSPAFTFPHPINPVAYQQILSQQRGLGSAFGHTPPLIQPSPTFLAQQPMTLTSISTMPTQLSSSSSNCLNDANQNKQNSESAVSSTVNPITIHKRSKVKTEAEGLRPASPLGLTQEQLADLKEDLDRDDCKQEAEVVIYETNCHWADCTKEYDTQEQLVHHINNEHIHGEKKEFVCRWQACTREQKPFKAQYMLVVHMRRHTGEKPHKCTFEGCSKAYSRLENLKTHLRSHTGEKPYVCEHEGCNKAFSNASDRAKHQNRTHSNEKPYICKIPGCTKRYTDPSSLRKHVKTVHGPDAHVTKKQRNDVHVRAPLLKENGDNEASAEPGGRGPEESVEASSTSHTVEDCLHIKAIKTESSGLCQSSPGAQSSCSSEPSPLGSAPNNDSGMEMPGTGPGSLGDLTALADTCPGADTSALAAPSTGGLQLRKHMSTVHRFEQLKREKLKSLKDSCSWAGPAPHTRNTKLPPLPVNGSVLENFNNTGGGGPAGLLPSQRLPELTEVTMLSQLQERRDSSTSTMSSAYTVSRRSSGISPYFSSRRSSEASPLGGLRPHNASSADSYDPISTDASRRSSEASQCSGGGPGLLNLTPAQQYNLRAKYAAATGGPPPTPLPGLDRVSLRTRLALLDAPERALPGACPHPLGPRRGSDGPTYSHGHGHGYAGAAPAFPHEGPNSSTRRASDPVRRPDPLILPRVQRFHSTHNMNPGSLPPCADRRGLHVQSHPSVDSNLTRNAYSPRPPSINENVVMEAVAAGVDGPGLECDLGLVEDELVLPDDVVQYIKAHTGGTLDDGIRQGYPTEGTGFPENSKLPSPGLQGHRRLAAADSNMGPSAPGLGGCQLSYSPSSNLNKSNMPVQWNEVSSGTVDALPTQVKPPPFPHSNLAVVQQKPAFGQYPGYNPQSVQSSSGGLDSTQPHLQLRGAPSASRGSYTQQPRQPAAGSQCLGMSAAMSPQASYSQAHPQLSPNIVSGSLNQFSPSCSNMAAKPSHLGLPQQMEVVPNATIMNGHQREHGVPNSSLAAVSQPHPVLSYPQQDSYQQGSNLLSSHQPGFMESQQNAGFGLMQPRPPLEPNTASRHRGVRSGQQQLYARTTGQAMVTSANQETAEAMPKGPAGTMVSLAPQPSQDTGRAQDQNTLYYYGQIHMYEQNGGCPAVQPQPPQPQACSDSIQPEPLPSPGVNQVSSTVDSQLLEPPQIDFDAIMDDGDHSSLFSGALSPTLLHNLSQNSSRLTTPRNSLTLPSIPAGISNMAVGDMSSMLTSLAEESKFLNMMT | decreases |  | 
human GLI2: S358A (protein) parent chain: METSASATASEKQEAKSGILEAAGFPDPGKKASPLVVAAAAAAAVAAQGVPQHLLPPFHAPLPIDMRHQEGRYHYEPHSVHGVHGPPALSGSPVISDISLIRLSPHPAGPGESPFNAPHPYVNPHMEHYLRSVHSSPTLSMISAARGLSPADVAQEHLKERGLFGLPAPGTTPSDYYHQMTLVAGHPAPYGDLLMQSGGAASAPHLHDYLNPVDVSRFSSPRVTPRLSRKRALSISPLSDASLDLQRMIRTSPNSLVAYINNSRSSSAASGSYGHLSAGALSPAFTFPHPINPVAYQQILSQQRGLGSAFGHTPPLIQPSPTFLAQQPMALTSINATPTQLSSSSNCLSDTNQNKQSSESAVSSTVNPVAIHKRSKVKTEPEGLRPASPLALTQGQVSGHGSCGCALPLSQEQLADLKEDLDRDDCKQEAEVVIYETNCHWEDCTKEYDTQEQLVHHINNEHIHGEKKEFVCRWQACTREQKPFKAQYMLVVHMRRHTGEKPHKCTFEGCSKAYSRLENLKTHLRSHTGEKPYVCEHEGCNKAFSNASDRAKHQNRTHSNEKPYICKIPGCTKRYTDPSSLRKHVKTVHGPDAHVTKKQRNDVHLRTPLLKENGDSEAGTEPGGPESTEASSTSQAVEDCLHVRAIKTESSGLCQSSPGAQSSCSSEPSPLGSAPNNDSGVEMPGTGPGSLGDLTALDDTPPGADTSALAAPSAGGLQLRKHMTTMHRFEQLKKEKLKSLKDSCSWAGPTPHTRNTKLPPLPGSGSILENFSGSGGGGPAGLLPNPRLSELSASEVTMLSQLQERRDSSTSTVSSAYTVSRRSSGISPYFSSRRSSEASPLGAGRPHNASSADSYDPISTDASRRSSEASQCSGGSGLLNLTPAQQYSLRAKYAAATGGPPPTPLPGLERMSLRTRLALLDAPERTLPAGCPRPLGPRRGSDGPTYGHGHAGAAPAFPHEAPGGGARRASDPVRRPDALSLPRVQRFHSTHNVNPGPLPPCADRRGLRLQSHPSTDGGLARGAYSPRPPSISENVAMEAVAAGVDGAGPEADLGLPEDDLVLPDDVVQYIKAHASGALDEGTGQVYPTESTGFSDNPRLPSPGLHGQRRMVAADSNVGPSAPMLGGCQLGFGAPSSLNKNNMPVQWNEVSSGTVDALASQVKPPPFPQGNLAVVQQKPAFGQYPGYSPQGLQASPGGLDSTQPHLQPRSGAPSQGIPRVNYMQQLRQPVAGSQCPGMTTTMSPHACYGQVHPQLSPSTISGALNQFPQSCSNMPAKPGHLGHPQQTEVAPDPTTMGNRHRELGVPDSALAGVPPPHPVQSYPQQSHHLAASMSQEGYHQVPSLLPARQPGFMEPQTGPMGVATAGFGLVQPRPPLEPSPTGRHRGVRAVQQQLAYARATGHAMAAMPSSQETAEAVPKGAMGNMGSVPPQPPPQDAGGAPDHSMLYYYGQIHMYEQDGGLENLGSCQVMRSQPPQPQACQDSIQPQPLPSPGVNQVSSTVDSQLLEAPQIDFDAIMDDGDHSSLFSGALSPSLLHSLSQNSSRLTTPRNSLTLPSIPAGISNMAVGDMSSMLTSLAEESKFLNMMT |  |  | decreases
human GLI2: S358D (protein) parent chain: METSASATASEKQEAKSGILEAAGFPDPGKKASPLVVAAAAAAAVAAQGVPQHLLPPFHAPLPIDMRHQEGRYHYEPHSVHGVHGPPALSGSPVISDISLIRLSPHPAGPGESPFNAPHPYVNPHMEHYLRSVHSSPTLSMISAARGLSPADVAQEHLKERGLFGLPAPGTTPSDYYHQMTLVAGHPAPYGDLLMQSGGAASAPHLHDYLNPVDVSRFSSPRVTPRLSRKRALSISPLSDASLDLQRMIRTSPNSLVAYINNSRSSSAASGSYGHLSAGALSPAFTFPHPINPVAYQQILSQQRGLGSAFGHTPPLIQPSPTFLAQQPMALTSINATPTQLSSSSNCLSDTNQNKQSSESAVSSTVNPVAIHKRSKVKTEPEGLRPASPLALTQGQVSGHGSCGCALPLSQEQLADLKEDLDRDDCKQEAEVVIYETNCHWEDCTKEYDTQEQLVHHINNEHIHGEKKEFVCRWQACTREQKPFKAQYMLVVHMRRHTGEKPHKCTFEGCSKAYSRLENLKTHLRSHTGEKPYVCEHEGCNKAFSNASDRAKHQNRTHSNEKPYICKIPGCTKRYTDPSSLRKHVKTVHGPDAHVTKKQRNDVHLRTPLLKENGDSEAGTEPGGPESTEASSTSQAVEDCLHVRAIKTESSGLCQSSPGAQSSCSSEPSPLGSAPNNDSGVEMPGTGPGSLGDLTALDDTPPGADTSALAAPSAGGLQLRKHMTTMHRFEQLKKEKLKSLKDSCSWAGPTPHTRNTKLPPLPGSGSILENFSGSGGGGPAGLLPNPRLSELSASEVTMLSQLQERRDSSTSTVSSAYTVSRRSSGISPYFSSRRSSEASPLGAGRPHNASSADSYDPISTDASRRSSEASQCSGGSGLLNLTPAQQYSLRAKYAAATGGPPPTPLPGLERMSLRTRLALLDAPERTLPAGCPRPLGPRRGSDGPTYGHGHAGAAPAFPHEAPGGGARRASDPVRRPDALSLPRVQRFHSTHNVNPGPLPPCADRRGLRLQSHPSTDGGLARGAYSPRPPSISENVAMEAVAAGVDGAGPEADLGLPEDDLVLPDDVVQYIKAHASGALDEGTGQVYPTESTGFSDNPRLPSPGLHGQRRMVAADSNVGPSAPMLGGCQLGFGAPSSLNKNNMPVQWNEVSSGTVDALASQVKPPPFPQGNLAVVQQKPAFGQYPGYSPQGLQASPGGLDSTQPHLQPRSGAPSQGIPRVNYMQQLRQPVAGSQCPGMTTTMSPHACYGQVHPQLSPSTISGALNQFPQSCSNMPAKPGHLGHPQQTEVAPDPTTMGNRHRELGVPDSALAGVPPPHPVQSYPQQSHHLAASMSQEGYHQVPSLLPARQPGFMEPQTGPMGVATAGFGLVQPRPPLEPSPTGRHRGVRAVQQQLAYARATGHAMAAMPSSQETAEAVPKGAMGNMGSVPPQPPPQDAGGAPDHSMLYYYGQIHMYEQDGGLENLGSCQVMRSQPPQPQACQDSIQPQPLPSPGVNQVSSTVDSQLLEAPQIDFDAIMDDGDHSSLFSGALSPSLLHSLSQNSSRLTTPRNSLTLPSIPAGISNMAVGDMSSMLTSLAEESKFLNMMT |  |  | decreases
